Experimental data taken from patent EP4624492A1 (Shanghai Hongcheng Biopharmaceutical Co., Ltd., dated 2025).
Where a chain is given by its changes, count along the chain named.

B1: 27B9-1G3_hIgG1 (antibody, V domains shown)
VH: EIQLQQSGPELEKPGASVKISCKASGYSFTGYNMNWVKKSNGKSLEWIGNIDPYYGGTNYNQKFKGKATLTVDKSSSTAYMQLKSLTSEDSAVYYCARETWFITTGVIKKGFYFDYWGQGTTLTVSS
VL: EIVLTQSPTTMAASPGEKITLACSASSIISSNYLHWYQQKPGFSPKLLIYRTSSLASGVPARFSGSGSGTSYSLTIGTMEAEDVATYYCQQGSSIPRTFGGGTKLEIKR
notes: also called hIgG1-subclass chimeric antibody 27B9-1G3
B2: 569D11B5_mIgG2a (antibody)
heavy: EVQLIESGGGLVQPKGSLKLSCAASGFNFNAYAMNWVRQAPGKGLEWVARIRSKSNDFATYYADSVKGRFTISRDDSENMLFLQMNNLKTEDTAMYYCVRHGRRDLLYSMDFWGQGTSVTVSSAKTTAPSVYPLAPVCGDTTGSSVTLGCLVKGYFPEPVTLTWNSGSLSSGVHTFPAVLQSDLYTLSSSVTVTSSTWPSQSITCNVAHPASSTKVDKKIEPRGPTIKPCPPCKCPAPNLLGGPSVFIFPPKIKDVLMISLSPIVTCVVVDVSEDDPDVQISWFVNNVEVHTAQTQTHREDYNSTLRVVSALPIQHQDWMSGKEFKCKVNNKDLPAPIERTISKPKGSVRAPQVYVLPPPEEEMTKKQVTLTCMVTDFMPEDIYVEWTNNGKTELNYKNTEPVLDSDGSYFMYSKLRVEKKNWVERNSYSCSVVHEGLHNHHTTKSFSRTPGK
light: DIVMTQAAFSNPVTLGTSASISCRSSKSLLHSNGITYLFWYLQKPGQSPQLLIYQMSNLASGVPDRFSGSGSGTDFTLRISRVEAEDVGVYYCAQSLELPLTFGGGTKLEIKRADAAPTVSIFPPSSEQLTSGGASVVCFLNNFYPKDINVKWKIDGSERQNGVLNSWTDQDSKDSTYSMSSTLTLTKDEYERHNSYTCEATHKTSTSPIVKSFNRNEC
notes: also called mIgG2a-subclass chimeric antibody 569D11B5
B3: 589D7C7_mIgG2a (antibody)
heavy: B2 heavy with I5V, D57N, G68D, N79S, L81V, F82Y, Q84E
light: B2 light with G89A
notes: also called mIgG2a-subclass chimeric antibody 589D7C7
B4: 559E1B10_mIgG2a (antibody)
heavy: KVQLQQSGPVLVKPGASVKMSCKASGYTFTDYYVNWMKQNYGKSPEWIGVINPHNGDTRYNQKFKGKATLTVDKSSSTANMELTSLTSGDSAVYYCASWLRRGYYFDSWGQGTTLTVSSAKTTAPSVYPLAPVCGDTTGSSVTLGCLVKGYFPEPVTLTWNSGSLSSGVHTFPAVLQSDLYTLSSSVTVTSSTWPSQSITCNVAHPASSTKVDKKIEPRGPTIKPCPPCKCPAPNLLGGPSVFIFPPKIKDVLMISLSPIVTCVVVDVSEDDPDVQISWFVNNVEVHTAQTQTHREDYNSTLRVVSALPIQHQDWMSGKEFKCKVNNKDLPAPIERTISKPKGSVRAPQVYVLPPPEEEMTKKQVTLTCMVTDFMPEDIYVEWTNNGKTELNYKNTEPVLDSDGSYFMYSKLRVEKKNWVERNSYSCSVVHEGLHNHHTTKSFSRTPGK
light: DIVMTQSPATLSVTPGDRVSLSCRASQSISDYLHWYQQKSHESPRLLLKYVSQSISGIPSRFSGSGSGSDFTLTINSVEPEDVGVYYCQNGHSFPLTFGAGTKLELKRADAAPTVSIFPPSSEQLTSGGASVVCFLNNFYPKDINVKWKIDGSERQNGVLNSWTDQDSKDSTYSMSSTLTLTKDEYERHNSYTCEATHKTSTSPIVKSFNRNEC
notes: also called mIgG2a-subclass chimeric antibody 559E1B10
B5: 559E1B10_hzH1L1_hIgG1 (antibody)
heavy: not shown
light: EIVLTQSPATLSLSPGERATLSCRASQSISDYLHWYQQKPGQAPRLLLKYVSQSISGIPARFSGSGSGTDFTLTISSLEPEDFAVYYCQNGHSFPLTFGGGTKVEIKRTVAAPSVFIFPPSDEQLKSGTASVVCLLNNFYPREAKVQWKVDNALQSGNSQESVTEQDSKDSTYSLSSTLTLSKADYEKHKVYACEVTHQGLSSPVTKSFNRGEC
notes: Humanized, hIgG1/K
B6: 563E10E12_hIgG1 (antibody)
heavy: not shown
light: DVVMTQAAFSNPVTLGTSTSISCRSSKSLLHSNGITYLFWYLQKPGQSPQLLIYQMSNLASGVPDRFSGSGSGTDFTLRISRVEAEDVGVYYCAQSLELPLTFGGGTKLEIKRTVAAPSVFIFPPSDEQLKSGTASVVCLLNNFYPREAKVQWKVDNALQSGNSQESVTEQDSKDSTYSLSSTLTLSKADYEKHKVYACEVTHQGLSSPVTKSFNRGEC
notes: also called hIgG1-subclass chimeric antibody 563E10E12
B7: 563E10E12_hzH1L0_hIgG1 (antibody)
heavy: not shown
light: DIVMTQSPLSLPVTPGEPASISCRSSKSLLHSNGITYLFWYLQKPGQSPQLLIYQMSNLASGVPDRFSGSGSGTDFTLKISRVEAEDVGVYYCAQSLELPLTFGGGTKVEIKRTVAAPSVFIFPPSDEQLKSGTASVVCLLNNFYPREAKVQWKVDNALQSGNSQESVTEQDSKDSTYSLSSTLTLSKADYEKHKVYACEVTHQGLSSPVTKSFNRGEC
notes: Humanized, hIgG1/K
B8: 563E10E12_hzH1L1_hIgG1 (antibody)
heavy: not shown
light: B7 light with I2V
notes: Humanized, hIgG1/K
B9: 563E10E12_hzH1L0_DE (antibody, human IgG1, kappa)
heavy: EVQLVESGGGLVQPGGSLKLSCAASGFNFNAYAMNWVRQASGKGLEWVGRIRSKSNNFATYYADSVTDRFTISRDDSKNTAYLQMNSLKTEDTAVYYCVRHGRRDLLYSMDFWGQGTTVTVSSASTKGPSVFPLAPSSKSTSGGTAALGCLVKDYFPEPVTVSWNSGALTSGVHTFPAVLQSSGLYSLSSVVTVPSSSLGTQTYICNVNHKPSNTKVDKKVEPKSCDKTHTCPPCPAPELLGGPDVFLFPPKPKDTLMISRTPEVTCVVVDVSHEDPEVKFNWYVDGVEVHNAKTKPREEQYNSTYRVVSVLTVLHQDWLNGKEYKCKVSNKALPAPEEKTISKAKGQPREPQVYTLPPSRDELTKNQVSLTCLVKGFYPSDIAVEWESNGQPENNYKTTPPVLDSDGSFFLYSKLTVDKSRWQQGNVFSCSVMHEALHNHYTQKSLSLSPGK
light: B7 light
B10: 563E10E12_hzH1L0_DLE (antibody, human IgG1, kappa)
heavy: EVQLVESGGGLVQPGGSLKLSCAASGFNFNAYAMNWVRQASGKGLEWVGRIRSKSNNFATYYADSVTDRFTISRDDSKNTAYLQMNSLKTEDTAVYYCVRHGRRDLLYSMDFWGQGTTVTVSSASTKGPSVFPLAPSSKSTSGGTAALGCLVKDYFPEPVTVSWNSGALTSGVHTFPAVLQSSGLYSLSSVVTVPSSSLGTQTYICNVNHKPSNTKVDKKVEPKSCDKTHTCPPCPAPELLGGPDVFLFPPKPKDTLMISRTPEVTCVVVDVSHEDPEVKFNWYVDGVEVHNAKTKPREEQYNSTYRVVSVLTVLHQDWLNGKEYKCKVSNKALPLPEEKTISKAKGQPREPQVYTLPPSRDELTKNQVSLTCLVKGFYPSDIAVEWESNGQPENNYKTTPPVLDSDGSFFLYSKLTVDKSRWQQGNVFSCSVMHEALHNHYTQKSLSLSPGK
light: B7 light
B11: 563E10E12_hzH1L0_AF (antibody, human IgG1, kappa)
heavy: not shown
light: B7 light
modifications: afucosylated (expressed in ExpiCHO cells with 2F-peracetyl-fucose)

What follows are binders tested against T1, human CCR8 (human, UniProt P51685 1-355) (assay: cell-based or functional assay).
T1 sequence (P51685 whole entry): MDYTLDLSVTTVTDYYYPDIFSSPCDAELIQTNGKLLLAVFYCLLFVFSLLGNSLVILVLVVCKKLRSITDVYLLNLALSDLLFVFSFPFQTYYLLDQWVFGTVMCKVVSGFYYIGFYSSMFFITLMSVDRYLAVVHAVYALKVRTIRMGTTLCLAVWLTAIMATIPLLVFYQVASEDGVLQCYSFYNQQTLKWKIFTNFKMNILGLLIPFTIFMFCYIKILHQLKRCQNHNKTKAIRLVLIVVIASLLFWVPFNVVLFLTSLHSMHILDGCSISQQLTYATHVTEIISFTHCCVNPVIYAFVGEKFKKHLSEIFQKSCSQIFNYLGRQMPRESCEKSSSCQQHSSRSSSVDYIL

Row | Binder | IC50 of blockade of CCL1-induced β-arrestin recruitment (Tango-H_CCR8-CHO-K1 cells)
1 | B1 | 0.26 µg/mL
2 | B2 | 0.997 µg/mL
3 | B3 | 0.993 µg/mL
4 | B4 | 1.76 µg/mL

Biological target: T1, human CCR8
Experiment: cell-based or functional assay
Remark: another data set of the same source

Row | Binder | IC50 of blockade of CCL1-induced β-arrestin recruitment
5 | B5 | 28.1 µg/mL
6 | B6 | 1.72 µg/mL
7 | B7 | 1.46 µg/mL
8 | B8 | 1.61 µg/mL

Biological target: T1, human CCR8
Experiment: cell-based or functional assay
Remark: another data set of the same source

Row | Binder | EC50 of activation of Jurkat-human FcγRIIIa(158V)-NFAT with 293F-hCCR8 target cells
9 | B5 | 0.0421 µg/mL

Biological target: T1, human CCR8
Experiment: cell-based or functional assay
Remark: another data set of the same source

Row | Binder | EC50 of activation of Jurkat-human FcγRIIIa(158V)-NFAT with 293F-hCCR8 target cells
10 | B6 | 0.0216 µg/mL
11 | B7 | 0.0279 µg/mL
12 | B8 | 0.0283 µg/mL

Biological target: T1, human CCR8
Experiment: cell-based or functional assay
Remark: another data set of the same source

Row | Binder | EC50 of activation of Jurkat-human FcγRIIIa(158V)-NFAT with CHOK1-hCCR8 target cells
13 | B5 | 0.0265 µg/mL
14 | B7 | 0.0299 µg/mL

Biological target: T1, human CCR8
Experiment: cell-based or functional assay
Remark: another data set of the same source

Row | Binder | EC50 of activation of Jurkat-human FcγRIIIa(158V)-NFAT with 293F-hCCR8 target cells
15 | B5 | 0.0133 µg/mL
16 | B7 | 0.0135 µg/mL
17 | B8 | 0.0089 µg/mL
18 | B9 | 0.0009 µg/mL
19 | B10 | 0.0007 µg/mL
20 | B11 | 0.0009 µg/mL

Biological target: T1, human CCR8
Experiment: cell-based or functional assay
Remark: another data set of the same source

Row | Binder | EC50 of activation of Jurkat-human FcγRIIIa(158V)-NFAT with HuT78 target cells
21 | B7 | 0.0409 µg/mL
22 | B9 | 0.0083 µg/mL
23 | B10 | 0.0057 µg/mL
24 | B11 | 0.011 µg/mL

Biological target: T1, human CCR8
Experiment: cell-based or functional assay
Remark: another data set of the same source

Row | Binder | EC50 of ADCC effect (lysis%) by human PBMCs on CHOK1-hCCR8 cells
25 | B7 | 0.00471 µg/mL
26 | B9 | 0.0006 µg/mL
27 | B10 | 0.00039 µg/mL
28 | B11 | 0.00031 µg/mL

These binders were tested against T1, human CCR8 (assay: flow cytometry on 293F-hCCR8 cells).

Row | Binder | EC50
29 | B1 | 0.273 µg/mL
30 | B6 | 0.0273 µg/mL
31 | B2 | 0.0835 µg/mL
32 | B3 | 0.0947 µg/mL
33 | B4 | 0.1 µg/mL

Biological target: T1, human CCR8
Experiment: flow cytometry on 293F-hCCR8 cells
Remark: another data set of the same source

Row | Binder | EC50
34 | B1 | 0.139 µg/mL
35 | B5 | 0.114 µg/mL
36 | B6 | 0.073 µg/mL
37 | B7 | 0.103 µg/mL
38 | B8 | 0.124 µg/mL

The binders below were run against T1, human CCR8 (assay: flow cytometry on CHOK1-hCCR8 cells).

Row | Binder | EC50
39 | B5 | 0.036 µg/mL
40 | B7 | 0.0376 µg/mL
41 | B8 | 0.0423 µg/mL

What follows are binders tested against T2, cynomolgus CCR8 (cynomolgus monkey) (assay: flow cytometry on 293T-cynoCCR8 cells).
T2 construct: whole, on cells; the constructs of the cell lines are not tied to it word for word; also called cynoCCR8

Row | Binder | EC50
42 | B1 | 0.305 µg/mL
43 | B2 | 0.072 µg/mL
44 | B3 | 0.0662 µg/mL
45 | B4 | 0.0819 µg/mL

Biological target: T2, cynomolgus CCR8
Experiment: flow cytometry on 293T-cynoCCR8 cells
Remark: another data set of the same source

Row | Binder | EC50
46 | B5 | 0.0876 µg/mL
47 | B6 | 0.0473 µg/mL
48 | B7 | 0.0227 µg/mL
49 | B8 | 0.0264 µg/mL

The binders below were run against T1, human CCR8 (assay: flow cytometry on HuT78 cells (endogenous CCR8)).

Row | Binder | EC50
50 | B5 | 15.2 µg/mL
51 | B7 | 0.054 µg/mL
52 | B8 | 0.0545 µg/mL

The binders below were run against T1, human CCR8 (assay: flow cytometry, competition with 10 nM AF647-human CCL1 on 293F-hCCR8 cells).

Row | Binder | IC50
53 | B1 | 0.273 µg/mL
54 | B6 | 0.0295 µg/mL
55 | B2 | 0.0544 µg/mL
56 | B3 | 0.0579 µg/mL
57 | B4 | 0.0649 µg/mL

Biological target: T1, human CCR8
Experiment: as above
Remark: another data set of the same source

Row | Binder | IC50
58 | B1 | 0.0959 µg/mL
59 | B5 | 0.15 µg/mL
60 | B6 | 0.0513 µg/mL
61 | B7 | 0.0852 µg/mL
62 | B8 | 0.0835 µg/mL
